This test deals with T1, Human C1q (human, UniProt P02745 23-245; P02746 28-253; P02747 29-245).
T1 construct: C1q A chain, human, from plasma; C1q B chain, human, from plasma; C1q C chain, human, from plasma; 18 polypeptides (6A, 6B, 6C), 460 kDa, as the introduction says; also called full-length C1q; source: purified from human plasma (IgG-Sepharose, HiTrap Protein G); copies: 6 + 6 + 6
Put plainly: ELISA; human C1q coated on wells (5, 2.5, 1.25, 0.625 μg/well); 2.5 μg gC1qR in 50 mM Tris-HCl pH 8.0, 100 mM NaCl, 5 mM CaCl2; 1 h at 37°C, then 1 h at 4°C; detected with anti-gC1qR polyclonal antibody and Protein A-HRP. The conditions noted are these: both partners purified. In general terms: In an ELISA, binding on a coated surface is turned into a signal by an enzyme label.

T1 sequence (P02745 23-245, chain 1 of 3): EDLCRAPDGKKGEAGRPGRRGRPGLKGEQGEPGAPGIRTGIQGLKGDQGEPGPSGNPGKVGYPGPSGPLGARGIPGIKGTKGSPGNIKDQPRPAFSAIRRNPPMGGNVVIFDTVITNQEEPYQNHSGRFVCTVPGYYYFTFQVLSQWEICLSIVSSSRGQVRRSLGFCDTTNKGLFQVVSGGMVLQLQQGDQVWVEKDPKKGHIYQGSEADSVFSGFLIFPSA
T1 sequence (P02746 28-253, chain 2 of 3): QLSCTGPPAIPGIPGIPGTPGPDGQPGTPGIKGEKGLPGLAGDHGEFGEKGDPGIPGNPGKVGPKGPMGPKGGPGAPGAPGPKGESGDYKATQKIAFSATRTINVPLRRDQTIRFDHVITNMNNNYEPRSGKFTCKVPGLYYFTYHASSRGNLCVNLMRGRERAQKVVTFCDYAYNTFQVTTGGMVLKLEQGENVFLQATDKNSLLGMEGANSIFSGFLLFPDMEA
T1 sequence (P02747 29-245, chain 3 of 3): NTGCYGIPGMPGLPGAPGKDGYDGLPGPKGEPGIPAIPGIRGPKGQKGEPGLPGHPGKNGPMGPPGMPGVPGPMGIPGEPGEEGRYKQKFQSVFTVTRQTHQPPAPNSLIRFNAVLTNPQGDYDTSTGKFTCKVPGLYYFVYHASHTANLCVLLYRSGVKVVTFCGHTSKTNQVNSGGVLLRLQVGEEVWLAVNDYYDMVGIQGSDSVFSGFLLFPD

B1: Recombinant mature human gC1qR (residues 74-282) (receptor, UniProt Q07021 74-282, looked up)
chain: LHTDGDKAFVDFLSDEIKEERKIQKHKTLPKMSGGWELELNGTEAKLVRKVAGEKITVTFNINNSIPPTFDGEEEPSQGQKVEEQEPELTSTPNFVVEVIKNDDGKKALVLDCHYPEDEVGQEDEAESDIFSIREVSFQSTGESEWKDTNYTLNTDSLDWALYDHLMDFLADRGVDNTFADELVELSTALEHQEYITFLEDLKSFVKSQ
With B1, the binding result is given as “binds”.

Values taken from PMC5153404, “Analysis of the Interaction between Globular Head Modules of Human C1q and Its Candidate Receptor gC1qR” (Frontiers in Immunology, 2016).
